# According to the supplement of paper PMC12042874:
# ± gives the uncertainty stated by the source.
# Test: amyloid nucleation score (Sup35N fusion, yeast selection) (log enrichment); library NNK2; higher = more nucleation; inactive = no reads after selection
# Outline: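 In psi-negative yeast, Sup35N fusions carrying peptides of 20 random codons were induced with 100 μM copper sulfate for 24 hours. The cells then grew 7 days at 30°C on medium lacking adenine and uracil, and plasmid inserts from input and output were Illumina-sequenced, excluding sequences with under 100 input reads. Nucleation score is the DiMSum log enrichment of output over input reads, centred on the mode score of non-aggregating sequences.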
row,Substance,amyloid nucleation score
1,SMFNCNWYCGCCMCNLGCLA,7.334 ± 0.035
2,SMGFSSVPHSYTCTVEQG,6.06 ± 0.07
3,SMNVYVDGFCWLAHVLNVVW,6.928 ± 0.035
4,SMPWYMYCIVYYVDVYCCNI,6.566 ± 0.039
5,SMRFVLAF,-1.92 ± 0.77
6,SMSMYTPNFFDFVVVRPTIY,inactive
7,SMTRLLGRDGYTREYSSSSR,0.834 ± 0.55
8,SMVKKLQMESPAFSVGIFWV,7.74 ± 0.085
9,SMVVGMGSCPNVTRGAGLKR,1.06 ± 0.17
10,SMYDAGIFVGYCLRGFLYDC,inactive
11,SMYLTETRLHCHDWSAAAWG,0.663 ± 0.21
12,SNCSLMGYCMYAYNGSDTGC,4.58 ± 0.11
13,SNCSPLATMDCSPDFMSTF,-0.121 ± 1.1
14,SNGINN,inactive
15,SNHLIVMISVFYFKSVRI,inactive
16,SNIGCRKIWTSLRSMDLIIG,-0.006 ± 0.65
17,SNIRISTADDSNSFLPFSSA,-0.315 ± 0.43
18,SNLEHSGWRTRMRWGL,5.5 ± 0.079
19,SNLSRDESRVGSTGEQGDGG,-0.38 ± 0.55
20,SNMASIFTPKRSFNSEVENQ,-1.31 ± 0.61
21,SNRCLIIFLILC,5.92 ± 0.077
22,SNRRKSAGDSFVRWMCCLT,2.61 ± 0.15
23,SNSCTPAGLETGNLK,inactive
24,SNSHNSRSIAY,0.475 ± 0.57
25,SNSQMKAAMVGCNLRGMEQA,0.689 ± 0.57
26,SNVSKYTKRGDM,-0.184 ± 0.33

row,Substance,amyloid nucleation score
1,SPALKPLGRMEYGVSGR,0.072 ± 0.29
2,SPCLDGDRHVGSQMLSPLSW,0.919 ± 0.33
3,SPGIITCGYKLLDG,1.69 ± 0.27
4,SPRRFLMKQGIHQVTLAHCH,-0.342 ± 0.76
5,SPTGPMYRNLLSKKPYVR,-0.909 ± 0.35
6,SPWCPQLSTGGCSNLGSLRR,0.612 ± 0.31
7,SPYHKANGHKNVARLYFRWR,0.731 ± 0.41
8,SQFLIMTEDR,0.123 ± 0.34
9,SQIWFTVTYGQYCYYIVSL,-0.33 ± 0.33
10,SQSKDMMCLSGSYSYYTACA,-1.21 ± 0.78
11,SQVGTW,0.795 ± 0.41
12,SREVRNANPSSGDDGSIRVE,-0.02 ± 1.1
13,SRFLCVKTTVVALI,4.66 ± 0.047
14,SRFLDGSLLPKTNGLSQEMV,0.122 ± 1.1
15,SRFRA,0.357 ± 0.27
16,SRGLSGNSSASLEKLNRL,0.072 ± 0.63
17,SRHWLNDVIFLSHSTSGQHW,1.49 ± 0.18
18,SRIFVRYTLAKLVDFSCPES,0.61 ± 0.46
19,SRLCFWSVGFNKTQQVEPVR,-1.33 ± 1.1
20,SRLMCNNVTSLLVFVFIGHK,-0.337 ± 0.74
21,SRMFVFNVGVIEFWKLGGYN,-0.716 ± 0.64
22,SRPTKYSKWILMPPCY,inactive
23,SRRRLVPSLLTRIISGVRGR,-0.877 ± 0.55
24,SRSLNWPSAGKLKSDYEFVV,-0.675 ± 0.3
25,SRSSG,5.17 ± 0.058
26,SRSVFIRSLAVITVIWILT,1.34 ± 0.13

row,Substance,amyloid nucleation score
1,SRTWAARNFLFRWVSPANFT,0.119 ± 0.74
2,SRVFRSRMDGPFQWSGMGEV,2.24 ± 0.076
3,SRVVGNRMYRSGLSRSSLLH,-0.263 ± 0.65
4,SRVWFVNPAPYPADTSELAK,0.509 ± 0.8
5,SRWLSQSPDHSWGGQTYGMS,-0.023 ± 0.63
6,SSAFFSFNWADKWCMLMCLV,-1.41 ± 1.1
7,SSCIFYFTIRTNQTYLGI,6.93 ± 0.06
8,SSCRTSSWLALVWFGLGVSG,0.177 ± 0.19
9,SSFCKPLKVRWLGVIVQLSV,-0.872 ± 0.45
10,SSFGGGCSVCRMWGGFLLDG,4.4 ± 0.059
11,SSFLDRAIGGEAGRCSVWMK,0.856 ± 0.24
12,SSFYTSGYPQNVSARGLGAE,0.627 ± 0.56
13,SSGCS,-0.021 ± 0.5
14,SSGFPE,-0.846 ± 0.42
15,SSGLTRFKYRRLRSIVFELG,inactive
16,SSIINMTDAVGWFLELKNGE,0.177 ± 0.37
17,SSIVSSPVCPLCGWGWF,5.55 ± 0.069
18,SSLCGNCLGVEVVEQVISCR,-0.12 ± 0.23
19,SSLGSSGAEKSRIGYIVIER,0.261 ± 0.77
20,SSMDFVHCSWAVWHLGSFLC,-1.01 ± 0.78
21,SSNVK,0.685 ± 0.4
22,SSPGSCIMSENWVNSSWRFT,inactive
23,SSRVDLLLLVETAFARSRIW,3.31 ± 0.08
24,SSRVDVVISHQREAIGSRQC,5.11 ± 0.077
25,SSSEFDPSSGSCLYT,-0.847 ± 0.34
26,SSSVSRPRCFFRSWFYIHVR,-1.21 ± 0.49

row,Substance,amyloid nucleation score
1,SSVHPPEPRINFFSSDGCIA,inactive
2,SSVIHYRT,0.038 ± 0.8
3,SSWAGVMYIVHNTKVHSYTI,3.19 ± 0.064
4,SSWVFITFSYVMRSQVYHLK,-1.12 ± 0.49
5,SSYGWSGTC,-0.833 ± 0.63
6,SSYRRLTQSTLRVDRHRLFY,0.732 ± 0.4
7,STALAFYP,inactive
8,STCFLTFVY,inactive
9,STDYMGPAY,-0.617 ± 0.37
10,STESARSKRGMSSPMNSIRA,0.029 ± 0.32
11,STMSFFSIGKLPEIVVGDSY,-1.24 ± 0.75
12,STNYQLSLFR,3.96 ± 0.086
13,STPIHDIFTPTLDRV,-0.08 ± 0.5
14,STQRIEDIEIVEQKCPACIG,0.754 ± 0.3
15,STSFIL,-0.718 ± 0.76
16,STSLVTIPCGGFGFKYSANP,0.171 ± 0.33
17,STSQWYRVLVRVVCSPM,0.331 ± 0.4
18,STSSNGSEYHCLSI,1.05 ± 0.44
19,STSSSLAR,0.867 ± 0.22
20,STTLSEIMIYAVTGG,-0.45 ± 0.31
21,STTWNSLELTTDNAAGAAII,2.95 ± 0.09
22,STVKVLVPEVHWSKATPRNY,2.99 ± 0.14
23,STVTELLRYPAHNFGEVHIL,4.702 ± 0.047
24,STWDGWGFSWISFL,-0.635 ± 1
25,STYSPSSPHMLSYPFWARTP,-0.269 ± 0.76
26,SVCSKSGNFYGVVNMGL,-0.161 ± 0.79

row,Substance,amyloid nucleation score
1,SVFCCLYLYSG,9.035 ± 0.023
2,SVFLSNLFSYRSADNYGMAR,inactive
3,SVFVNCNHWYIYSPWPSKRN,8.715 ± 0.047
4,SVGQMQLT,0.707 ± 0.35
5,SVIISVVD,-0.851 ± 0.35
6,SVIRSCVNIDSLVKVEWGAS,6.717 ± 0.052
7,SVKRHPFRTVKLGVSVLLWV,1 ± 0.18
8,SVLAAP,inactive
9,SVLKYS,-0.334 ± 0.63
10,SVLMDYNSKWWDRMSSFIRP,-0.272 ± 0.48
11,SVQKIEIMYYRRKTGVYEFE,3.4 ± 0.055
12,SVYLGCRCHVMFVRLTVAFV,inactive
13,SVYNWYIIPANCEQDLCM,5.54 ± 0.095
14,SVYQVRLLFGDLRANKAVVS,-0.494 ± 0.56
15,SWAQRCDGGMYMRDCWLMGS,0.361 ± 0.33
16,SWFSSNFFFY,5.27 ± 0.058
17,SWFVRLGTRNWYTLRRVVIG,-0.315 ± 0.29
18,SWGTRV,inactive
19,SWGYNRF,inactive
20,SWKGHIISSAHQQLESPSLW,0.345 ± 0.23
21,SWKWYRS,0.157 ± 1
22,SWMIYLCRVGTITRMQDWLW,-0.445 ± 0.35
